Data from article PMC2849673 (Biochemistry, 2010).

Biological target: the molecule itself
Assay: crystal structure

B1: E-2-(acetamidomethylene)succinate (E-2AMS) hydrolase (enzyme, Mesorhizobium loti MAFF303099, UniProt Q988D4 1-278, looked up)
chain: MDMAADIASDHFISRRVDIGRITLNVREKGSGPLMLFFHGITSNSAVFEPLMIRLSDRFTTIAVDQRGHGLSDKPETGYEANDYADDIAGLIRTLARGHAILVGHSLGARNSVTAAAKYPDLVRSVVAIDFTPYIETEALDALEARVNAGSQLFEDIKAVEAYLAGRYPNIPADAIRIRAESGYQPVDGGLRPLASSAAMAQTARGLRSDLVPAYRDVTKPVLIVRGESSKLVSAAALAKTSRLRPDLPVVVVPGADHYVNEVSPEITLKAITNFIDA
  stoichiometry N: 2
